Values of other authors as cited in patent publication US11324773B2, “Compounds, compositions and methods for inhibiting a pathogen and/or modifying mucus” (The University of North Carolina at Chapel Hill, priority 2017, dated 2022).

Experiments:
[1] = test system: HBE mucus; settings: 30 μM, 24 h, versus controls
[2] = test system: expectorated sputum; settings: patients with CF, 10 d, 2.5 mg twice daily

Molecule	decrease of viscosity and elasticity of HBE mucus [1]	reduction of expectorated sputum elasticity [2] [%]	reduction of expectorated sputum viscosity [2] [%]
CC(=O)N[C@@H](CS)C(=O)O [N-acetylcysteine]	by an order of magnitude	–	–
dornase alfa (protein, UniProt P24855 23-282, looked up, conventional mucolytic therapy used to treat CF) Deoxyribonuclease-1: LKIAAFNIQTFGETKMSNATLVSYIVQILSRYDIALVQEVRDSHLTAVGKLLDNLNQDAPDTYHYVVSEPLGRNSYKERYLFVYRPDQVSAVDSYYYDDGCEPCGNDTFNREPAIVRFFSRFTEVREFAIVPLHAAPGDAVAEIDALYDVYLDVQEKWGLEDVMLMGDFNAGCSYVRPSQWSSIRLWTSPTFQWLIPDSADTTATPTHCAYDRIVVAGMLLRGAVVPDSALPFNFQAAYGLSDQLAQAISDHYPVEVMLK	–	68	59
